The target in this experiment is T1, FLAG-tagged Lgl1 (Lethal giant larvae 1), Q80Y17.
T1 chain: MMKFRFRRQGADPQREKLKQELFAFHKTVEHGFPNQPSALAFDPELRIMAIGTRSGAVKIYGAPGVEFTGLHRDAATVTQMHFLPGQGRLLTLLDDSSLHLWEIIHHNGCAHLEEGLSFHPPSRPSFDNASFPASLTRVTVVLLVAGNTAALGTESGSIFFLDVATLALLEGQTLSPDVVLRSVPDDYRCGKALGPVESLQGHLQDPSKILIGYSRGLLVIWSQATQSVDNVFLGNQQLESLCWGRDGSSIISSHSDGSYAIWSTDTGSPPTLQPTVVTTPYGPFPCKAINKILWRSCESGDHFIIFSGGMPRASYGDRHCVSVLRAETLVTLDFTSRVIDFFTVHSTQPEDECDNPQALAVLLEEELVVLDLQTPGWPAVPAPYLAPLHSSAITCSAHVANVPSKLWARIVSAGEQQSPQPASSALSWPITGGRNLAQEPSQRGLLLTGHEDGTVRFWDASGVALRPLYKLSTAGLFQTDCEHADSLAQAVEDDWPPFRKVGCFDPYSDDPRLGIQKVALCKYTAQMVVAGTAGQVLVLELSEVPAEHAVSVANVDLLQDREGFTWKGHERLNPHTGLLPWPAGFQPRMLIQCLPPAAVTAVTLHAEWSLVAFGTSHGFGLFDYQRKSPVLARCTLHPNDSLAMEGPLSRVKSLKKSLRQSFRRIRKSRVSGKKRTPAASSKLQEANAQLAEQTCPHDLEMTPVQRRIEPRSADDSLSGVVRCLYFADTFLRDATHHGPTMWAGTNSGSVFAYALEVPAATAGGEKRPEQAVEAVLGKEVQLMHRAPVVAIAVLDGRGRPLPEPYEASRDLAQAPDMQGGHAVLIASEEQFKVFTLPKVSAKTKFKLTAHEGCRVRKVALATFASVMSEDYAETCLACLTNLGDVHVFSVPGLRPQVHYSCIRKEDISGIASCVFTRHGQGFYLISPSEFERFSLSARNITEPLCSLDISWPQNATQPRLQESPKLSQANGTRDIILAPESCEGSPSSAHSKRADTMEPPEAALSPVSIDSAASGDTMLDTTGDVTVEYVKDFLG
The experiment is described as follows: co-immunoprecipitation (FLAG IP, western blot with HA and FLAG antibodies, quantified). Particulars: chain shown with the change; HEK293T cell lysates; n = 3; parent: est. 1.0; read off a plot. Background: Immunoblotting shows a protein as a band on a membrane.

B1: HA-PKCζ-wt, Q05513 K225R; K284R; K378R (protein)
chain: MPSRTGPKMEGSGGRVRLKAHYGGDIFITSVDAATTFEELCEEVRDMCRLHQQHPLTLKWVDSEGDPCTVSSQMELEEAFRLARQCRDEGLIIHVFPSTPEQPGLPCPGEDKSIYRRGARRWRKLYRANGHLFQAKRFNRRAYCGQCSERIWGLARQGYRCINCKLLVHKRCHGLVPLTCRKHMDSVMPSQEPPVDDKNEDADLPSEETDGIAYISSSRKHDSIRDDSEDLKPVIDGMDGIKISQGLGLQDFDLIRVIGRGSYAKVLLVRLKKNDQIYAMKVVRKELVHDDEDIDWVQTEKHVFEQASSNPFLVGLHSCFQTTSRLFLVIEYVNGGDLMFHMQRQRKLPEEHARFYAAEICIALNFLHERGIIYRDLRLDNVLLDADGHIKLTDYGMCKEGLGPGDTTSTFCGTPNYIAPEILRGEEYGFSVDWWALGVLMFEMMAGRSPFDIITDNPDMNTEDYLFQVILEKPIRIPRFLSVKASHVLKGFLNKDPKERLGCRPQTGFSDIKSHAFFRSIDWDLLEKKQALPPFQPQITDDYGLDNFDTQFTSEPVQLTPDDEDAIKRIDQSEFEGFEYINPLLLSTEESV
B1: the ratio to parent stood at 2.4.

Source of the values: PMC5040961.
